According to article PMC2935179:
Where two headings read alike, the source gives them in different places.

Tests used:
[1] = molecular target: T1, Δ22 (FLI portion of EWS/FLI);FLI ETS domain (;, UniProt Q01543;Q01543 220-452;270-371, |); assay: EMSA
T1 sequence 1: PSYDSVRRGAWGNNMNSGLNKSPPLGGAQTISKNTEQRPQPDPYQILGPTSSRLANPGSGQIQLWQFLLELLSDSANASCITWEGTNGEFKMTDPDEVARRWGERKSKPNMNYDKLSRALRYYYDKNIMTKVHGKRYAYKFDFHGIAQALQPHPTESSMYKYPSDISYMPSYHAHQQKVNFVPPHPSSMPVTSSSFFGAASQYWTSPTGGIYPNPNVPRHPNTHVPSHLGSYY
T1 sequence 2: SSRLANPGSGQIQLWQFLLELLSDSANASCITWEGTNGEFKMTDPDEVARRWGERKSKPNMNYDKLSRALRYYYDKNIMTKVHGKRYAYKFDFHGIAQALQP

[2] = molecular target: T1, Δ22 (FLI portion of EWS/FLI);FLI ETS …; assay: EMSA; remark: listed apart in the source
[3] = molecular target: T2, Δ22 (FLI portion of EWS/FLI) (UniProt Q01543 220-452); assay: fluorescence polarization stoichiometry
T2 sequence: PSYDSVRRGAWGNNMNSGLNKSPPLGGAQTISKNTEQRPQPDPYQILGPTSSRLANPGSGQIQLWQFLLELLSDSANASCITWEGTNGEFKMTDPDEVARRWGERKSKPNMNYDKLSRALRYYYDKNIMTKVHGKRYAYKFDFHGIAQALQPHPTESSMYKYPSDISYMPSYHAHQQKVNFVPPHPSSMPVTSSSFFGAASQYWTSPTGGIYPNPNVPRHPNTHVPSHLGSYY

ETS1 = molecular target: T3, ETS1 (UniProt P14921 1-441); assay: EMSA
T3 sequence: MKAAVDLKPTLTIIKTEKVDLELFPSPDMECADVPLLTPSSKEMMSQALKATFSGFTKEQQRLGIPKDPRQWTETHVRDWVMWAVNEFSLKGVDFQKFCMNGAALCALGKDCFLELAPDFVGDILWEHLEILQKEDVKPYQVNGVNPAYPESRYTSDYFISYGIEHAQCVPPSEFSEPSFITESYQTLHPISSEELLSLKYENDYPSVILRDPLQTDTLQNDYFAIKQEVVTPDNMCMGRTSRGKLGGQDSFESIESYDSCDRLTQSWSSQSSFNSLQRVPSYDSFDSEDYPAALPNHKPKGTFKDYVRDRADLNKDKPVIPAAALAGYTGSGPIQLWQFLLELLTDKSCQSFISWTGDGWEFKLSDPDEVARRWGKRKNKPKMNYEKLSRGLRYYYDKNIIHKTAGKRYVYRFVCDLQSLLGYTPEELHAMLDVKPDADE

ELF1 = ELF1 (UniProt P32519 1-619); assay: EMSA
Chain of ELF1 (P32519 whole entry): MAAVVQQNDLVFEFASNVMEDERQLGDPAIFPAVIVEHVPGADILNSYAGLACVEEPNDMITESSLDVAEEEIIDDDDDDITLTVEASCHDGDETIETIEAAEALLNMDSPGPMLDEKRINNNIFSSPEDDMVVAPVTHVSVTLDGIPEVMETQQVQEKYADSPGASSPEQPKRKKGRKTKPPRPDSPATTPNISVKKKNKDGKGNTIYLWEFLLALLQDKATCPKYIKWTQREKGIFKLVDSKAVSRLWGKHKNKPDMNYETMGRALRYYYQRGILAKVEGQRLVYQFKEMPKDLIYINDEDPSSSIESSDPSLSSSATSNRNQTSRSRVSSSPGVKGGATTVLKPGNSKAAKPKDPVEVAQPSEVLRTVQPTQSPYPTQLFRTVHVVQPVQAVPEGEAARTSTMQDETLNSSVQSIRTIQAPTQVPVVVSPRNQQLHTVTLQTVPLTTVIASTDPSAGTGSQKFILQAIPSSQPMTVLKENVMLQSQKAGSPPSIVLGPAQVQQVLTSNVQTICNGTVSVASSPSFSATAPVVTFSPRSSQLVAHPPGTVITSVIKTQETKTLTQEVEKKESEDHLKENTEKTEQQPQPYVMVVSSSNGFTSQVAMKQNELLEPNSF

B1: 4 GGAA motifs (dsDNA)
DNA 1: TGCAGGAAGGAAGGAAGGAAAGCT
DNA 2: AGCTTTCCTTCCTTCCTTCCTGCA
B1: binds [1].

B2: 6 GGAA motifs (dsDNA)
DNA 1: TGCAGGAAGGAAGGAAGGAAGGAAGGAAAGCT
DNA 2: AGCTTTCCTTCCTTCCTTCCTTCCTTCCTGCA
B2: binds [2]; binds [3].

B3: 7 GGAA motifs (dsDNA)
DNA 1: TGCAGGAAGGAAGGAAGGAAGGAAGGAAGGAAAGCT
DNA 2: AGCTTTCCTTCCTTCCTTCCTTCCTTCCTTCCTGCA
B3: binds (ETS1); binds [2]; binds (ELF1). B3: binds [3].

B4: 5 GGAA motifs (dsDNA)
DNA 1: TGCAGGAAGGAAGGAAGGAAGGAAAGCT
DNA 2: AGCTTTCCTTCCTTCCTTCCTTCCTGCA
B4: binds [2]; binds [3].
